B1: CER21: Tim4 binding and transmembrane domains, TLR8 signaling domain; SEQ ID NO:88 (protein)
chain: MSKGLLLLWLVTELWWLYLTPAASEDTIIGFLGQPVTLPCHYLSWSQSRNSMCWGKGSCPNSKCNAELLRTDGTRIISRKSTKYTLLGKVQFGEVSLTISNTNRGDSGVYCCRIEVPGWFNDVKKNVRLELRRATTTKKPTTTTRPTTTPYVTTTTPELLPTTVMTTSVLPTTTPPQTLATTAFSTAVTTCPSTTPGSFSQETTKGSAFTTESETLPASNHSQRSMMTISTDIAVLRPTGSNPGILPSTSQLTTQKTTLTTSESLQKTTKSHQINSRQTILIIACCVGFVLMVLLFLAFLHHLFYWDVWFIYNVCLAKVKGYRSLSTSQTFYDAYISYDTKDASVTDWVINELRYHLEESRDKNVLLCLEERDWDPGLAIIDNLMQSINQSKKTVFVLTKKYAKSWNFKTAFYLALQRLMDENMDVIIFILLEPVLQHSQYLRLRQRICKSSILQWPDNPKAEGLFWQTLRNVVLTENDSRYNNMYVDSIKQY
modifications: CER21 chimeric engulfment receptor
B2: CER123: Tim4 binding and transmembrane domains, TLR2 primary and TRAF6 secondary signaling domains; SEQ ID NO:150 (protein)
chain: MSKGLLLLWLVTELWWLYLTPAASEDTIIGFLGQPVTLPCHYLSWSQSRNSMCWGKGSCPNSKCNAELLRTDGTRIISRKSTKYTLLGKVQFGEVSLTISNTNRGDSGVYCCRIEVPGWFNDVKKNVRLELRRATTTKKPTTTTRPTTTPYVTTTTPELLPTTVMTTSVLPTTTPPQTLATTAFSTAVTTCPSTTPGSFSQETTKGSAFTTESETLPASNHSQRSMMTISTDIAVLRPTGSNPGILPSTSQLTTQKTTLTTSESLQKTTKSHQINSRQTILIIACCVGFVLMVLLFLAFLHRFHGLWYMKMMWAWLQAKRKPRKAPSRNICYDAFVSYSERDAYWVENLMVQELENFNPPFKLCLHKRDFIPGKWIIDNIIDSIEKSHKTVFVLSENFVKSEWCKYELDFSHFRLFDENNDAAILILLEPIEKKAIPQRFCKLRKIMNTKTYLEWPMDEAQREGFWVNLRAAIKSMSLLNCENSCGSSQSESDCCVAMASSCSAVTKDDSVGGTASTGNLSSSFMEEIQGYDVEFDPPLESKYECPICLMALREAVQTPCGHRFCKACIIKSIRDAGHKCPVDNEILLENQLFPDNFAKREILSLMVKCPNEGCLHKMELRHLEDHQAHCEFALMDCPQCQRPFQKFHINIHILKDCPRRQVSCDNCAASMAFEDKEIHDQNCPLANVICEYCNTILIREQMPNHYDLDCPTAPIPCTFSTFGCHEKMQRNHLARHLQENTQSHMRMLA
modifications: CER123 protein
B3: CER104: Tim4 binding and transmembrane domains, TLR8 primary and DAP12 secondary signaling domains; SEQ ID NO:133 (protein)
chain: MSKGLLLLWLVTELWWLYLTPAASEDTIIGFLGQPVTLPCHYLSWSQSRNSMCWGKGSCPNSKCNAELLRTDGTRIISRKSTKYTLLGKVQFGEVSLTISNTNRGDSGVYCCRIEVPGWFNDVKKNVRLELRRATTTKKPTTTTRPTTTPYVTTTTPELLPTTVMTTSVLPTTTPPQTLATTAFSTAVTTCPSTTPGSFSQETTKGSAFTTESETLPASNHSQRSMMTISTDIAVLRPTGSNPGILPSTSQLTTQKTTLTTSESLQKTTKSHQINSRQTILIIACCVGFVLMVLLFLAFLHHLFYWDVWFIYNVCLAKVKGYRSLSTSQTFYDAYISYDTKDASVTDWVINELRYHLEESRDKNVLLCLEERDWDPGLAIIDNLMQSINQSKKTVFVLTKKYAKSWNFKTAFYLALQRLMDENMDVIIFILLEPVLQHSQYLRLRQRICKSSILQWPDNPKAEGLFWQTLRNVVLTENDSRYNNMYVDSIKQYYFLGRLVPRGRGAAEAATRKQRITETESPYQELQGQRSDVYSDLNTQRPYYK
modifications: CER104 protein

Key:
Type in all cases: cell-based
[1] = test system: H1975 lung adenocarcinoma cells; experiment: LDH assay, H1975 cells, 48 hours co-culture with 1 μM Osimeritinib; settings: E:T 1:1, 48 hours, CD4+ T cells
From the text: CER30 comprises a Tim4 binding domain, Tim4 transmembrane domain, and an engulfment signaling domain comprising a primary engulfment signaling domain comprising a TRAF2 signaling domain. CER30 has a polypeptide sequence as set forth in SEQ ID NO:96. CER110 has a polypeptide sequence of SEQ ID NO:125 and comprises a Tim4 binding domain, Tim4 transmembrane domain, and an engulfment signaling domain comprising a primary engulfment signaling domain comprising a TRAF6 signaling domain and a secondary engulfment signaling domain comprising a DAP12 signaling domain. CER112 has a polypeptide sequence of SEQ ID NO:128 and comprises a Tim4 binding domain, Tim4 transmembrane domain, and an engulfment signaling domain comprising a primary engulfment signaling domain comprising a TRAF6 signaling domain and a secondary engulfment signaling domain comprising a NFAM1 signaling domain. CER127 has a polypeptide sequence of SEQ ID NO:175 and comprises a Tim4 binding domain, Tim4 transmembrane domain, and an engulfment signaling domain comprising a primary engulfment signaling domain comprising a TRAF2 signaling domain and a secondary engulfment signaling domain comprising a TLR2 signaling domain. H1975 cells are more resistant to EGFR inhibitors, so Osimeritinib was used at slightly higher concentration. H1975 lung adenocarcinoma cells harboring an EGFR mutation were co-cultured with CER-expressing or mock-transduced (vector only) CD4+ T cells with 1 μM of Osimeritinib. After 48 hours of co-culture at a 1:1 effector:target cell ratio, T cells were washed away, and the number of viable H1975 cells was quantified using a calorimetric LDH assay (FIG. 57). Cell viability experiments were performed in triplicate and presented as % of control.

ALK+A549 cells = experiment: Phagocytosis of ALK inhibitor treated A549 ALK+ cells by CER T cells (fluorescent microscopy); settings: 12 hours; for phagocytosis of A549 cells: CD4 T cells
From the text: An ELM4-ALK translocation was introduced into A549 cells. […] CD4 T cells are modified to express CER104 or CER117 and labeled with CELLTRACE Violet. CER117 has a polypeptide sequence set forth in SEQ ID NO:144 and comprises a Tim4 binding domain, a Tim4 transmembrane domain, and an engulfment signaling domain comprising a primary engulfment signaling domain comprising a TLR8 signaling domain and a secondary engulfment signaling domain comprising a TRAF6 signaling domain. The ALK+A549 cells were then co-cultured with CER104- or CER117-expressing CD4+ T cells or Mock-transduced (vector only) T cells for 12 hours and images were obtained by fluorescent microscopy at 40× magnification (FIGS. 62A-E). White arrows indicate exemplary phagocytic events (pH rodo red cell targets within CELLTRACE Violet labeled CD4+ T cells).
CER123- and CER126-transduced CD4+ and CD8+ T cells were labeled with CELLTRACE Violet and co-cultured with the A549 ALK-positive cells. Co-cultured cells were imaged by fluorescent microscopy at 63× magnification after 12 hours (FIGS. 63A-F). White arrows indicate exemplary phagocytic events (pHrodo red targets within CELLTRACE Violet-labeled CD4 T cells).
Phagocytosis of Alectinib-treated ALK+A549 cells by CER-expressing T cells was also quantified. […] Bar graph in FIG. 64A represents quantification of percentage phagocytosis calculated as ((number of phagocytic target events)/(total number of effector cells))*100. Events were calculated from fluorescent 3×3 stitched images at 40×resolution after 12 hours of co-culture. Bar graph in FIG. 64B represents quantification of adjusted phagocytic index calculated as (median area ratio of target events in effector cells*phagocytosis). Events calculated from fluorescent 3×3 stitched images at 40×resolution after 12 hours of co-culture.
CER21−, CER27−, CER30−, CER108−, CER110−, CER112−, CER120−, CER123−, CER124−, CER126−, CER127−, or CER104-transduced CD4+ T cells were co-cultured with Alectinib-treated A549 cells at a 1:1 ratio for 12 hours. Phagocytic events were calculated from 3×3 stitched fluorescent microscopy images at 40X resolution. […] Images were obtained after 12 hours of co-culture. Yellow triangles indicate exemplary phagocytic events (pHrodo red targets within CELLTRACE violet labeled CD4+ T cells).
A time course study of phagocytic uptake of tumor cells by CER-transduced T cells was performed. CD4+ T cells were transduced with a lentiviral vector comprising CER122 nucleic acid. Mock-transduced (vector only) CD4+ T cells were used as control. CER122-transduced T cells were labeled with CELLTRACE violet and co-cultured with pHrodo red labeled A549 ALK+ lung adenocarcinoma cells. Fluorescent microscopy images were obtained at 4, 8, and 16 hours co-culture (FIG. 72C), and % phagocytosis (FIG. 72A) and phagocytic index (FIG. 72B) were calculated.

A549 ALK+ cells = experiment: MTT viability and bright field microscopy of A549 ALK+ cells with CER T cells and ALK inhibitor; settings: for in vitro growth/viability of A549 ALK+ cells (MTT): Alectinib or Crizotinib 250 nM-10 μM, E:T 2:1 and 5:1
From the text: An […] translocation was introduced into A549 cells. […] CER104 has a polypeptide sequence set forth in SEQ ID NO:133 and comprises a Tim4 binding domain, Tim4 transmembrane domain, and an engulfment signaling domain comprising a primary engulfment signaling domain comprising a TLR8 signaling domain and a secondary engulfment signaling domain comprising a DAP12 signaling domain. CER122 has a polypeptide sequence set forth in SEQ ID NO:149 and comprises a Tim4 binding domain, Tim4 transmembrane domain, and an engulfment signaling domain comprising a primary engulfment signaling domain comprising a TLR2 signaling domain and a secondary engulfment signaling domain comprising a DAP12 signaling domain. Effector:target (E:T) cell ratio for co-culture was 2:1 or 5:1. […] Cell viability experiments were performed in triplicates and presented as % of control. Best-fit curves were generated from raw data using linear regression models.
CER21−, CER108−, CER104−, and CER129-transduced CD4+ T cells were tested for their ability to kill A549 ALK+ cells in the presence of ALK inhibitor. CD4+ T cells were transduced with a lentiviral vector comprising a CER21, CER108, CER104, CER129, CER27, CER120, CER122, CER123, CER124, or CER126 nucleic acid. […] After 48 hours of co-culture, T cells were washed away and the number of viable A549 ALK+ cells was quantified using a calorimetric MTT assay (FIGS. 67A-B). Cell viability experiments were performed in triplicates and presented as % of control. Bright field microscopy images were also obtained from A549 ALK+co-culture experiments. […] Arrow indicates cluster of dead A549 ALK+ cells surrounded by phagocytic CER104+ T cells. […]

Molecule	killing of H1975 cells (LDH) [1]	phagocytic elimination of ALK+A549 cells (ALK+A549 cells; 2.5 μM Alectinib)	bright field microscopy of A549 ALK+ co-culture (A549 ALK+ cells; Alectinib 3.7 μM, 48 hours, vs mock-transduced T cells)	in vitro growth/viability of A549 ALK+ cells (MTT) (A549 ALK+ cells; 48 hours)	in vitro growth/viability of A549 ALK+ cells (MTT) (A549 ALK+ cells; 72 hours)	phagocytosis of A549 cells (ALK+A549 cells; 1 μM Alectinib)	phagocytosis of A549 cells (ALK+A549 cells; 1 μM Crizotinib)
B1	synergistic killing of H1975 lung adenocarcinoma cells upon EGFR inhibition						
B2	synergistic killing of H1975 lung adenocarcinoma cells upon EGFR inhibition	phagocytic elimination of ALK+A549 cells					
B3	synergistic killing of H1975 lung adenocarcinoma cells upon EGFR inhibition		cluster of dead A549 ALK+ cells surrounded by phagocytic CER104^+ T cells	synergistically suppress in vitro growth of NSCLC cells harboring ALK rearrangements	synergistically suppress in vitro growth of NSCLC cells harboring ALK rearrangements	phagocytosed A549 cells	phagocytosed A549 cells
